Measured values taken from article PMC3400432 (Developmental Cell, 2012).

T1: Myc-epsin1 (UniProt O88339 1-575)
T1 sequence (looked up): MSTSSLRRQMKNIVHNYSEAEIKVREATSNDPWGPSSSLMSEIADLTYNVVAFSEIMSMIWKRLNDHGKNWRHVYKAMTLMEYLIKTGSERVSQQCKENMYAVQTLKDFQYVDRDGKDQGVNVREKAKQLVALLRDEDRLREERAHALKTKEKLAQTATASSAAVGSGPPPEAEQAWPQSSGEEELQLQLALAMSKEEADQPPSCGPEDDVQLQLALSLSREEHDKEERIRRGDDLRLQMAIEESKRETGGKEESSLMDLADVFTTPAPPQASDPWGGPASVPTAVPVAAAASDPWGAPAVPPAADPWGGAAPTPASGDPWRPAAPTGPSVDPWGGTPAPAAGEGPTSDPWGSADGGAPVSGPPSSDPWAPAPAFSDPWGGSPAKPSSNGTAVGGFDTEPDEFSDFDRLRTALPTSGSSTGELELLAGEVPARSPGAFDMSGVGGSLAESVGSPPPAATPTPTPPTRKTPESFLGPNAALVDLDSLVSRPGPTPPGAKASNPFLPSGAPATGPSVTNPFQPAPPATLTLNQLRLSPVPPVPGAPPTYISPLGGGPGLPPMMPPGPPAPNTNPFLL

B1: Dll1 expressed in 293T cells (ligand, UniProt P97677 18-714, looked up)
chain: QVWSSGVFELKLQEFVNKKGLLGNRNCCRGGSGPPCACRTFFRVCLKHYQASVSPEPPCTYGSAVTAVLGVDSFSLPDGAGIDPAFSNPIRFPFGFTWPGTFSLIIEALHTDSPDDLATENPERLISRLTTQRHLTVGEEWSQDLHSSGRTDLRYSYRFVCDEHYYGEGCSVFCRPRDDAFGHFTCGERGEKMCDPGWKGQYCTDPICLPGCDDQHGYCDKPGECKCRVGWQGRYCDECIRYPGCLHGTCQQPWQCNCQEGWGGLFCNQDLNYCTHHKPCRNGATCTNTGQGSYTCSCRPGYTGANCELEVDECAPSPCRNGGSCTDLEDSYSCTCPPGFYGKVCELSAMTCADGPCFNGGRCSDNPDGGYTCHCPAGFSGFNCEKKIDLCSSSPCSNGAKCVDLGNSYLCRCQTGFSGRYCEDNVDDCASSPCANGGTCRDSVNDFSCTCPPGYTGRNCSAPVSRCEHAPCHNGATCHQRGQRYMCECAQGYGGANCQFLLPEPPPDLIVAAQGGSFPWVAVCAGVVLVLLLLLGCAAVVVCVRLKLQKHQPPPDPCGGETETMNNLANCQREKDVSVSIIGATQIKNTNKKADFHGDHGADKSSFKARYPTVDYNLIRDLKGDEATVRDAHSKRDTKCQSQGSVGEEKSTSTLRGGEVPDRKRPESVYSTSKDTKYQSVYVLSAEKDECVIATEV
B2: Delta-like 1 (Dll1) (ligand, UniProt P97677 18-714, looked up)
chain: B1 chain
B3: epsin1-Venus (natural protein, rat, UniProt O88339 1-575, looked up)
chain: T1 sequence (looked up)

How the values were obtained:
Experiment in all cases: co-IP
Myc-epsin1 = molecular target: T1, Myc-epsin1
epsin1-Venus = molecular target: B3
Delta-like 1 (Dll1) = molecular target: B2

Binder: B1
- fold decrease of the co-IP with PAR-1T560A-eGFP (Myc-epsin1): 2 fold

Binder: B2
- fold increase of the co-IP, cells on N1Fc- against Fc-coated dishes (epsin1-Venus): 1.9 fold

Binder: B3
- fold increase of the co-IP, cells on N1Fc- against Fc-plates (Delta-like 1 (Dll1)): 1.8 fold
